Measured values published in patent US20200024330A1.

B1: PGT-123 (antibody, V domains shown)
VH: QLHLQESGPGLVKPPETLSLTCSVSGASINDAYWSWIRQSPGKRPEWVGYVHHSGDTNYNPSLKRRVTFSLDTAKNEVSLKLVDLTAADSATYFCARALHGKRIYGIVALGELFTYFYMDVWGKGTAVTVSS
VL: SSMSVSPGETAKISCGKESIGSRAVQWYQQKPGQPPSLIIYNNQDRPAGVPERFSASPDFRPGTTATLTITNVDAEDEADYYCHIYDARGGTNWVFDRGTTLTVL
B2: PGT-135 (antibody, V domains shown)
VH: QLQMQESGPGLVKPSETLSLSCTVSGDSIRGGEWGDKDYHWGWVRHSAGKGLEWIGSIHWRGTTHYKESLRRRVSMSIDTSRNWFSLRLASVTAADTAVYFCARHRHHDVFMLVPIAGWFDVWGPGVQVTVSS
VL: EIVMTQSPDTLSVSPGETVTLSCRASQNINKNLAWYQYKPGQSPRLVIFETYSKIAAFPARFVASGSGTEFTLTINNMQSEDVAVYYCQQYEEWPRTFGQGTKVDIK
B3: PGT-131 (antibody, V domains shown)
VH: QVQLQESGPGLVKPSETLSLTCTVSGDSINTGHHYWGWVRQVPGKGPEWIAHIHYNTAVLHNPALKSRVTISIFTLKNLITLSLSNVTAADTAVYFCVRSGGDILYYIEWQKPHWFYPWGPGILVTVSS
VL: QSALTQPPSASGSLGQSLTISCSGTGSDIGSWNFVSWYQQFPGRAPNLIIFEVNRRRSGVPDRFSGSKSGNTASLTVSGLRSEDEAEYFCSSLSGRWDIVFGGGTKVTVL

Columns and labels:
Assay in all cases: cell-based or functional assay
[1] = biological target: HIV-1 Env of isolate JR-CSF (HIV-1) (UniProt P20871)
[2] = biological target: HIV-1 JR-CSF Env E321aA (HIV-1 isolate JR-CSF) (UniProt P20871)
[3] = biological target: HIV-1 JR-CSF Env R327A (HIV-1 isolate JR-CSF) (UniProt P20871)
[4] = biological target: HIV-1 JR-CSF Env Q422A (HIV-1 (isolate JR-CSF)) (UniProt P20871)
[5] = biological target: Env of the clade C HIV-1 pseudoviruses of the cross-clade 162-pseudovirus panel (n = 27)
[6] = biological target: HIV-1 JR-CSF Env K305A (HIV-1 JR-CSF) (UniProt P20871)
[7] = biological target: HIV-1 JR-CSF Env I420A (HIV-1 (isolate JR-CSF)) (UniProt P20871)
[8] = biological target: HIV-1 JR-CSF Env S306A (HIV-1 JR-CSF) (UniProt P20871)
[9] = biological target: HIV-1 JR-CSF Env T202A (HIV-1 JR-CSF) (UniProt P20871)
[10] = biological target: HIV-1 JR-CSF Env W395A (HIV-1 (isolate JR-CSF)) (UniProt P20871)
[11] = biological target: HIV-1 JR-CSF Env R419A (HIV-1 (isolate JR-CSF)) (UniProt P20871)
[12] = biological target: HIV-1 JR-CSF Env N386A (HIV-1 isolate JR-CSF) (UniProt P20871)
[13] = biological target: HIV-1 JR-CSF Env I326A (HIV-1 isolate JR-CSF) (UniProt P20871)
[14] = biological target: HIV-1 JR-CSF Env K343A (HIV-1 isolate JR-CSF) (UniProt P20871)
[15] = biological target: HIV-1 JR-CSF Env D325A (HIV-1 isolate JR-CSF) (UniProt P20871)
[16] = biological target: HIV-1 JR-CSF Env N339A (HIV-1 isolate JR-CSF) (UniProt P20871)
[17] = biological target: HIV-1 JR-CSF Env I323A (HIV-1 isolate JR-CSF) (UniProt P20871)
[18] = biological target: HIV-1 JR-CSF Env F317A (HIV-1 isolate JR-CSF) (UniProt P20871)
[19] = biological target: HIV-1 JR-CSF Env R304A (HIV-1 JR-CSF) (UniProt P20871)
[20] = biological target: HIV-1 JR-CSF Env N295A (HIV-1 JR-CSF) (UniProt P20871)
[21] = biological target: HIV-1 JR-CSF Env N396A (HIV-1 (isolate JR-CSF)) (UniProt P20871)
[22] = biological target: HIV-1 Env of isolate 92TH021 (HIV-1)
[23] = biological target: HIV-1 JR-CSF Env N262A (HIV-1 JR-CSF) (UniProt P20871)
[24] = biological target: HIV-1 JR-CSF Env V292A (HIV-1 JR-CSF) (UniProt P20871)
[25] = biological target: HIV-1 JR-CSF Env S393A (HIV-1 (isolate JR-CSF)) (UniProt P20871)
[26] = biological target: HIV-1 JR-CSF Env L416A (HIV-1 (isolate JR-CSF)) (UniProt P20871)
[27] = biological target: HIV-1 JR-CSF Env R315A (HIV-1 isolate JR-CSF) (UniProt P20871)
[28] = biological target: HIV-1 JR-CSF Env K421A (HIV-1 (isolate JR-CSF)) (UniProt P20871)
[29] = biological target: HIV-1 JR-CSF Env T303A (HIV-1 JR-CSF) (UniProt P20871)
[30] = biological target: HIV-1 JR-CSF Env D417A (HIV-1 (isolate JR-CSF)) (UniProt P20871)
[31] = biological target: HIV-1 JR-CSF Env N392Q (HIV-1 (isolate JR-CSF)) (UniProt P20871)
[32] = biological target: Env of the clade A HIV-1 pseudoviruses of the cross-clade 162-pseudovirus panel (n = 26)
[33] = biological target: HIV-1 JR-CSF Env S387A (HIV-1 (isolate JR-CSF)) (UniProt P20871)
[34] = biological target: Env of the clade AG HIV-1 pseudoviruses of the cross-clade 162-pseudovirus panel (n = 10)
[35] = biological target: HIV-1 JR-CSF Env N276A (HIV-1 JR-CSF) (UniProt P20871)
[36] = biological target: HIV-1 JR-CSF Env P299A (HIV-1 JR-CSF) (UniProt P20871)
[37] = biological target: HIV-1 JR-CSF Env P313A (HIV-1 JR-CSF) (UniProt P20871)
[38] = biological target: HIV-1 JR-CSF Env N355A (HIV-1 isolate JR-CSF) (UniProt P20871)
[39] = biological target: Env of the clade F HIV-1 pseudoviruses of the cross-clade 162-pseudovirus panel (n = 15)

Binder	Fold IC50 increase relative to wild-type [2]	Fold IC50 increase relative to wild-type [3]	Fold IC50 increase relative to wild-type [4]	Median IC50 against viruses neutralized with an IC50 <50 µg/ml [5]	Fold IC50 increase relative to wild-type [7]	Fold IC50 increase relative to wild-type [8]	Fold IC50 increase relative to wild-type [9]	Fold IC50 increase relative to wild-type [10]	Fold IC50 increase relative to wild-type [11]	Fold IC50 increase relative to wild-type [12]	Fold IC50 increase relative to wild-type [13]	Fold IC50 increase relative to wild-type [14]	Fold IC50 increase relative to wild-type [15]	Fold IC50 increase relative to wild-type [16]	Fold IC50 increase relative to wild-type [17]	Fold IC50 increase relative to wild-type [18]	Fold IC50 increase relative to wild-type [19]	Fold IC50 increase relative to wild-type [20]	Fold IC50 increase relative to wild-type [21]	Fold IC50 increase relative to wild-type [23]	further results
B1	0.6 fold	1.7 fold	0.8 fold	0.01 µg/mL	3.2 fold	0.5 fold	1.2 fold	0.4 fold	0.7 fold	1.4 fold	0.4 fold	0.3 fold	64 fold	0.8 fold	1 fold	3.1 fold	0.7 fold	1.2 fold	1.2 fold	0.5 fold	Primary Neutralization Index (B cell culture well 4858 P8) [1]: 1.6; Fold IC50 increase relative to wild-type [6]: 1.9 fold; IC50 (µg/mL), pseudovirus neutralization [22]: > 50 µg/mL; Fold IC50 increase relative to wild-type [24]: 1.7 fold; Fold IC50 increase relative to wild-type [25]: 0.6 fold; Fold IC50 increase relative to wild-type [26]: 0.9 fold; Fold IC50 increase relative to wild-type [27]: 0.7 fold; Fold IC50 increase relative to wild-type [28]: 0.9 fold; Fold IC50 increase relative to wild-type [29]: 1.1 fold; Fold IC50 increase relative to wild-type [30]: 0.7 fold; Fold IC50 increase relative to wild-type [31]: 1 fold; Median IC50 against viruses neutralized with an IC50 <50 µg/ml [32]: 0.02 µg/mL; Fold IC50 increase relative to wild-type [33]: 0.9 fold; Median IC50 against viruses neutralized with an IC50 <50 µg/ml [34]: 0.61 µg/mL; Fold IC50 increase relative to wild-type [35]: 1.1 fold; Fold IC50 increase relative to wild-type [36]: 0.7 fold; Fold IC50 increase relative to wild-type [37]: 0.2 fold; Fold IC50 increase relative to wild-type [38]: 0.5 fold; Median IC50 against viruses neutralized with an IC50 <50 µg/ml [39]: 0.09 µg/mL
B2	0.8 fold	0.67 fold	0.8 fold	0.05 µg/mL	1.4 fold	0.4 fold	1.8 fold	0.6 fold	3.9 fold	0.3 fold	1.2 fold	1.1 fold	0.5 fold	1.2 fold	1.5 fold	0.5 fold	0.7 fold	> 18 fold	1 fold	2.1 fold	Primary Neutralization Index (B cell culture well 5343 B8) [1]: 1.8; Primary Neutralization Index (B cell culture well 5344 E16) [1]: 1.5; Fold IC50 increase relative to wild-type [6]: 0.2 fold; Fold IC50 increase relative to wild-type [24]: 2 fold; Fold IC50 increase relative to wild-type [25]: 0.9 fold; Fold IC50 increase relative to wild-type [26]: 1.2 fold; Fold IC50 increase relative to wild-type [27]: 1.8 fold; Fold IC50 increase relative to wild-type [28]: 0.3 fold; Fold IC50 increase relative to wild-type [29]: 0.3 fold; Fold IC50 increase relative to wild-type [30]: 5 fold; Fold IC50 increase relative to wild-type [31]: > 250 fold; Median IC50 against viruses neutralized with an IC50 <50 µg/ml [32]: 0.64 µg/mL; Fold IC50 increase relative to wild-type [33]: 0.6 fold; Median IC50 against viruses neutralized with an IC50 <50 µg/ml [34]: 27.4 µg/mL; Fold IC50 increase relative to wild-type [35]: 2.5 fold; Fold IC50 increase relative to wild-type [36]: 0.36 fold; Fold IC50 increase relative to wild-type [37]: 0.5 fold; Fold IC50 increase relative to wild-type [38]: 0.8 fold; Median IC50 against viruses neutralized with an IC50 <50 µg/ml [39]: 0.21 µg/mL
B3	1.8 fold	19 fold	1.9 fold	0.78 µg/mL	153 fold	0.7 fold	2.7 fold	0.5 fold	1.7 fold	1.1 fold	1.7 fold	1.1 fold	> 170 fold	1 fold	38 fold	96 fold	1.5 fold	2.1 fold	0.9 fold	0.4 fold	Primary Neutralization Index (B cell culture well 5136 H1) [1]: 6.2; Primary Neutralization Index (B cell culture well 5136 H1) [22]: 354; Fold IC50 increase relative to wild-type [24]: 1.4 fold; Fold IC50 increase relative to wild-type [25]: 1.1 fold; Fold IC50 increase relative to wild-type [26]: 1 fold; Fold IC50 increase relative to wild-type [27]: 0.7 fold; Fold IC50 increase relative to wild-type [28]: 11 fold; Fold IC50 increase relative to wild-type [29]: > 170 fold; Fold IC50 increase relative to wild-type [30]: 1 fold; Fold IC50 increase relative to wild-type [31]: 0.4 fold; Median IC50 against viruses neutralized with an IC50 <50 µg/ml [32]: 0.09 µg/mL; Fold IC50 increase relative to wild-type [33]: 1.1 fold; Median IC50 against viruses neutralized with an IC50 <50 µg/ml [34]: 0.18 µg/mL; Fold IC50 increase relative to wild-type [35]: 0.8 fold; Fold IC50 increase relative to wild-type [36]: 2 fold; Fold IC50 increase relative to wild-type [37]: 0.52 fold; Fold IC50 increase relative to wild-type [38]: 2.3 fold; Median IC50 against viruses neutralized with an IC50 <50 µg/ml [39]: 0.55 µg/mL
